# Values quoted from earlier work as cited in paper PMC2783455.
# Target: Calmodulin (UniProt P0DP23)
substance,measurement,value
CyaA (from UniProt J7QLC0),Kd,0.2 nM
